Target: Porcine RNA polymerase II, purified (porcine) (UniProt I3LGP4)
Assay: mass photometry

For “Porcine RNA polymerase II, purified (from UniProt I3LGP4 127-1300; P60899 1-125; A0A4X1VYD0 1-67; A0A8D0JYF1 1-58) (complex)”, the stoichiometry N was 2.
